Measured values reported in US20170240920A1.

Target: RQR8
Experiment: cell-based or functional assay

clinical grade human-rituximab (antibody)
eGFP positive cells in the sorted fraction (K562 cells, human rituximab on protein-A beads): 89.4%
transduced target cells with LV sorted with beads (RDpro pseudotyped LV): 14.1%
transduced target cells with the purified fraction (VSV-G pseudotyped LV): 73.6%
